# From publication PMC5453099, “Vascular Endothelial Growth Factor (VEGF) Detection Using an Aptamer and PNA-Based Bound/Free Separation System”
# Target: VEGF (vascular endothelial growth factor) (UniProt P15692-4 27-191)
# Test: bound/free separation: fluorescence of supernatant after capture of free aptamer on PNA beads; 10 nM aptamer, CaPNA4 beads; signal rises with 5-50 nM VEGF; detection limit 25 nM (not a Kd); TBS: 10 mM Tris-HCl pH 7.0, 100 mM NaCl; room temperature; protein and aptamer 10 min, then CaPNA beads 5 min (beads blocked with 4% skimmed milk and 4 mM biotin)
# Settings: protein: commercial; chain copies: 2; label: 5'-fluorescein; predicted three-way junction with stem-loops
# Chain of VEGF (vascular endothelial growth factor) (P15692 other isoform, or with tags, fused parts or gaps): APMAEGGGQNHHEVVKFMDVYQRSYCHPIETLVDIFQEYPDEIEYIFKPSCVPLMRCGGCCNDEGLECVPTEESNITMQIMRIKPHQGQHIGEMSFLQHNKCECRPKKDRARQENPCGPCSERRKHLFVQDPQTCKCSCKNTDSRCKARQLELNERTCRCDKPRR
binder,measurement,value
VEGF aptamer (58-mer) (structured_DNA) DNA: CTGGCCAGGTACCAAAAGATGATCTTGGGCCCGTCCGAATGGTGGGTGTTCTGGCCAG,binding result,binds
